In the array DNA melting data of Ke et al.:

test: melting temperature; melt of duplexes; conditions: sodium 0.0675 M; strand 1 µM

Going from “CGACGTGCCTGATGTGCTG+CAGCACATTACGCACGTCG ((((((((.(.((((((((+)))))))).).))))))))” to “CGACGTGCTGAATGTGCTG+CAGCACATTCTGCACGTCG ((((((((.((((((((((+)))))))))).))))))))”, the Tm rises from 49 °C to 59.2 °C.

First: CGACGTGCCGTATGTGCTG+CAGCACATCCAGCACGTCG ((((((((.(.((((((((+)))))))).).))))))))
Second: CGACGTGCGCAATGTGCTG+CAGCACATTTAGCACGTCG ((((((((..(((((((((+)))))))))..))))))))
The Tm of the first is lower: 49.8 °C for the first, 53 °C for the second.

“CGACGTGCCTGATGTGCTG+CAGCACATTTTGCACGTCG ((((((((...((((((((+))))))))...))))))))” and “CGACGTGCCCTATGTGCTG+CAGCACATTCAGCACGTCG ((((((((...((((((((+))))))))...))))))))” are the same in Tm: 48.8 °C for the first, 48.8 °C for the second.

Going from “CGACGTGCCCAATGTGCTG+CAGCACATTGGGCACGTCG (((((((((((((((((((+)))))))))))))))))))” to “CGACGTGCTTAATGTGCTG+CAGCACATCTTGCACGTCG ((((((((...((((((((+))))))))...))))))))”, the Tm falls from 66 °C to 48.9 °C.

Going from “CGACGTGCCATATGTGCTG+CAGCACATATGGCACGTCG (((((((((((((((((((+)))))))))))))))))))” to “CGACGTGCCTGATGTGCTG+CAGCACATGCAGCACGTCG ((((((((...((((((((+))))))))...))))))))”, the Tm falls from 63 °C to 50.4 °C.

First: CGACGTGCGTCATGTGCTG+CAGCACATGCGGCACGTCG ((((((((..(((((((((+)))))))))..))))))))
Second: CGACGTGCCCAATGTGCTG+CAGCACATGCCGCACGTCG ((((((((...((((((((+))))))))...))))))))
The Tm of the first is higher: 54.4 °C for the first, 48.9 °C for the second.

First: CGACGTGCCGCATGTGCTG+CAGCACATGCCGCACGTCG ((((((((.((((((((((+)))))))))).))))))))
Second: CGACGTGCCATATGTGCTG+CAGCACATCTCGCACGTCG ((((((((.(.((((((((+)))))))).).))))))))
The Tm of the first is higher: 58.9 °C for the first, 47.7 °C for the second.

Compared with “CGACGTGCTGGATGTGCTG+CAGCACATTTAGCACGTCG (((((((((..((((((((+))))))))..)))))))))”, “CGACGTGCGTAATGTGCTG+CAGCACATATAGCACGTCG ((((((((...((((((((+))))))))...))))))))” is higher in Tm: 54 °C for the first, 54.5 °C for the second.

Going from “CGACGTGCATCATGTGCTG+CAGCACATCTAGCACGTCG ((((((((...((((((((+))))))))...))))))))” to “CGACGTGCTCCATGTGCTG+CAGCACATCCAGCACGTCG (((((((((..((((((((+))))))))..)))))))))”, the Tm rises from 47.3 °C to 48.7 °C.

Compared with “CGACGTGCCTTATGTGCTG+CAGCACATTGCGCACGTCG ((((((((...((((((((+))))))))...))))))))”, “CGACGTGCTTTATGTGCTG+CAGCACATATCGCACGTCG ((((((((..(((((((((+)))))))))..))))))))” is higher in Tm: 48.4 °C for the first, 49.1 °C for the second.

Compared with “CGACGTGCCTAATGTGCTG+CAGCACATTGAGCACGTCG ((((((((..(((((((((+)))))))))..))))))))”, “CGACGTGCTAGATGTGCTG+CAGCACATAGTGCACGTCG ((((((((...((((((((+))))))))...))))))))” is lower in Tm: 52.7 °C for the first, 46.1 °C for the second.

First: CGACGTGCGAGATGTGCTG+CAGCACATTATGCACGTCG ((((((((...((((((((+))))))))...))))))))
Second: CGACGTGCGCCATGTGCTG+CAGCACATCGCGCACGTCG ((((((((((.((((((((+)))))))).))))))))))
The Tm of the first is lower: 51.6 °C for the first, 58.3 °C for the second.

First: CGACGTGCCTGATGTGCTG+CAGCACATCCCGCACGTCG ((((((((..(((((((((+)))))))))..))))))))
Second: CGACGTGCTCTATGTGCTG+CAGCACATAGAGCACGTCG (((((((((((((((((((+)))))))))))))))))))
The Tm of the first is lower: 53 °C for the first, 63 °C for the second.

Compared with “CGACGTGCGCGATGTGCTG+CAGCACATCTTGCACGTCG ((((((((..(((((((((+)))))))))..))))))))”, “CGACGTGCCCTATGTGCTG+CAGCACATATGGCACGTCG (((((((((.(((((((((+))))))))).)))))))))” is higher in Tm: 53.9 °C for the first, 55.8 °C for the second.

Compared with “CGACGTGCTAGATGTGCTG+CAGCACATCCTGCACGTCG ((((((((..(((((((((+)))))))))..))))))))”, “CGACGTGCGCAATGTGCTG+CAGCACATCGGGCACGTCG ((((((((.(.((((((((+)))))))).).))))))))” is lower in Tm: 54.7 °C for the first, 52.7 °C for the second.

Going from “CGACGTGCATGATGTGCTG+CAGCACATGCGGCACGTCG ((((((((...((((((((+))))))))...))))))))” to “CGACGTGCTCAATGTGCTG+CAGCACATTTAGCACGTCG (((((((((.(((((((((+))))))))).)))))))))”, the Tm rises from 48 °C to 54.7 °C.

First: CGACGTGCGAAATGTGCTG+CAGCACATAGCGCACGTCG (((((((((..((((((((+))))))))..)))))))))
Second: CGACGTGCCCAATGTGCTG+CAGCACATGTTGCACGTCG ((((((((...((((((((+))))))))...))))))))
The Tm of the first is higher: 55.4 °C for the first, 49.4 °C for the second.

First: CGACGTGCGTCATGTGCTG+CAGCACATTCAGCACGTCG ((((((((...((((((((+))))))))...))))))))
Second: CGACGTGCTGCATGTGCTG+CAGCACATCTTGCACGTCG ((((((((...((((((((+))))))))...))))))))
The Tm of the first is higher: 51.3 °C for the first, 50.1 °C for the second.

Compared with “CGACGTGCCCTATGTGCTG+CAGCACATCCAGCACGTCG ((((((((...((((((((+))))))))...))))))))”, “CGACGTGCGCTATGTGCTG+CAGCACATTTGGCACGTCG ((((((((...((((((((+))))))))...))))))))” is higher in Tm: 47.7 °C for the first, 49.2 °C for the second.

First: CGACGTGCAAGATGTGCTG+CAGCACATATCGCACGTCG ((((((((.(.((((((((+)))))))).).))))))))
Second: CGACGTGCGCAATGTGCTG+CAGCACATGGCGCACGTCG ((((((((((.((((((((+)))))))).))))))))))
The Tm of the first is lower: 50.3 °C for the first, 63 °C for the second.

Compared with “CGACGTGCCATATGTGCTG+CAGCACATTTAGCACGTCG ((((((((.(.((((((((+)))))))).).))))))))”, “CGACGTGCGGTATGTGCTG+CAGCACATGACGCACGTCG (((((((((..((((((((+))))))))..)))))))))” is higher in Tm: 49.7 °C for the first, 56.6 °C for the second.

Compared with “CGACGTGCGGCATGTGCTG+CAGCACATTTAGCACGTCG ((((((((...((((((((+))))))))...))))))))”, “CGACGTGCATAATGTGCTG+CAGCACATGCTGCACGTCG (((((((((..((((((((+))))))))..)))))))))” is lower in Tm: 52 °C for the first, 50 °C for the second.

Compared with “CGACGTGCATAATGTGCTG+CAGCACATCGGGCACGTCG ((((((((...((((((((+))))))))...))))))))”, “CGACGTGCAAAATGTGCTG+CAGCACATCCCGCACGTCG ((((((((...((((((((+))))))))...))))))))” is lower in Tm: 48.2 °C for the first, 47.2 °C for the second.

First: CGACGTGCAACATGTGCTG+CAGCACATCGTGCACGTCG (((((((((..((((((((+))))))))..)))))))))
Second: CGACGTGCAAGATGTGCTG+CAGCACATCCCGCACGTCG ((((((((..(((((((((+)))))))))..))))))))
The Tm of the first is lower: 47.9 °C for the first, 52.9 °C for the second.

Compared with “CGACGTGCCGCATGTGCTG+CAGCACATAGAGCACGTCG ((((((((...((((((((+))))))))...))))))))”, “CGACGTGCATAATGTGCTG+CAGCACATAGTGCACGTCG (((((((((..((((((((+))))))))..)))))))))” is lower in Tm: 50.7 °C for the first, 48.7 °C for the second.

First: CGACGTGCCGCATGTGCTG+CAGCACATCTGGCACGTCG (((((((((..((((((((+))))))))..)))))))))
Second: CGACGTGCGGAATGTGCTG+CAGCACATTGAGCACGTCG ((((((((..(((((((((+)))))))))..))))))))
The Tm of the first is lower: 54.2 °C for the first, 56.2 °C for the second.

“CGACGTGCGAGATGTGCTG+CAGCACATGGTGCACGTCG ((((((((...((((((((+))))))))...))))))))” and “CGACGTGCTTGATGTGCTG+CAGCACATTTCGCACGTCG ((((((((...((((((((+))))))))...))))))))” are the same in Tm: 48.5 °C for the first, 48.5 °C for the second.

First: CGACGTGCGCGATGTGCTG+CAGCACATCGCGCACGTCG (((((((((((((((((((+)))))))))))))))))))
Second: CGACGTGCGTGATGTGCTG+CAGCACATTATGCACGTCG ((((((((.(.((((((((+)))))))).).))))))))
The Tm of the first is higher: 69.3 °C for the first, 54.5 °C for the second.

Compared with “CGACGTGCGTAATGTGCTG+CAGCACATTACGCACGTCG (((((((((((((((((((+)))))))))))))))))))”, “CGACGTGCTAGATGTGCTG+CAGCACATGCCGCACGTCG ((((((((...((((((((+))))))))...))))))))” is lower in Tm: 63.9 °C for the first, 49.2 °C for the second.

First: CGACGTGCTAAATGTGCTG+CAGCACATGTAGCACGTCG ((((((((((.((((((((+)))))))).))))))))))
Second: CGACGTGCATGATGTGCTG+CAGCACATTGCGCACGTCG ((((((((...((((((((+))))))))...))))))))
The Tm of the first is higher: 55.7 °C for the first, 49.1 °C for the second.

Compared with “CGACGTGCCTCATGTGCTG+CAGCACATAGCGCACGTCG ((((((((...((((((((+))))))))...))))))))”, “CGACGTGCCAAATGTGCTG+CAGCACATGCTGCACGTCG ((((((((...((((((((+))))))))...))))))))” is lower in Tm: 49.6 °C for the first, 48.2 °C for the second.

Going from “CGACGTGCTAGATGTGCTG+CAGCACATTCGGCACGTCG ((((((((...((((((((+))))))))...))))))))” to “CGACGTGCGACATGTGCTG+CAGCACATAGTGCACGTCG ((((((((...((((((((+))))))))...))))))))”, the Tm falls from 52.1 °C to 48.8 °C.

Going from “CGACGTGCACTATGTGCTG+CAGCACATCTTGCACGTCG (((((((((..((((((((+))))))))..)))))))))” to “CGACGTGCTTTATGTGCTG+CAGCACATCCAGCACGTCG (((((((((..((((((((+))))))))..)))))))))”, the Tm rises from 46.5 °C to 49.4 °C.

Going from “CGACGTGCGGGATGTGCTG+CAGCACATCGCGCACGTCG (((((((((.(((((((((+))))))))).)))))))))” to “CGACGTGCGAAATGTGCTG+CAGCACATTCTGCACGTCG ((((((((..(((((((((+)))))))))..))))))))”, the Tm falls from 63.7 °C to 53.7 °C.

First: CGACGTGCCAAATGTGCTG+CAGCACATGATGCACGTCG ((((((((...((((((((+))))))))...))))))))
Second: CGACGTGCGCTATGTGCTG+CAGCACATCCCGCACGTCG (((((((((..((((((((+))))))))..)))))))))
The Tm of the first is lower: 50.3 °C for the first, 52.1 °C for the second.

Going from “CGACGTGCCTCATGTGCTG+CAGCACATCCAGCACGTCG ((((((((...((((((((+))))))))...))))))))” to “CGACGTGCCTCATGTGCTG+CAGCACATTCTGCACGTCG ((((((((...((((((((+))))))))...))))))))”, the Tm falls from 47.4 °C to 47.1 °C.
